Values quoted from earlier work, collected in article PMC11741591.

Target: reelin receptors (ApoER2/VLDLR) (Homo sapiens) (UniProt Q14114)
UniProt Q14114, sequence (Q14114 33-826): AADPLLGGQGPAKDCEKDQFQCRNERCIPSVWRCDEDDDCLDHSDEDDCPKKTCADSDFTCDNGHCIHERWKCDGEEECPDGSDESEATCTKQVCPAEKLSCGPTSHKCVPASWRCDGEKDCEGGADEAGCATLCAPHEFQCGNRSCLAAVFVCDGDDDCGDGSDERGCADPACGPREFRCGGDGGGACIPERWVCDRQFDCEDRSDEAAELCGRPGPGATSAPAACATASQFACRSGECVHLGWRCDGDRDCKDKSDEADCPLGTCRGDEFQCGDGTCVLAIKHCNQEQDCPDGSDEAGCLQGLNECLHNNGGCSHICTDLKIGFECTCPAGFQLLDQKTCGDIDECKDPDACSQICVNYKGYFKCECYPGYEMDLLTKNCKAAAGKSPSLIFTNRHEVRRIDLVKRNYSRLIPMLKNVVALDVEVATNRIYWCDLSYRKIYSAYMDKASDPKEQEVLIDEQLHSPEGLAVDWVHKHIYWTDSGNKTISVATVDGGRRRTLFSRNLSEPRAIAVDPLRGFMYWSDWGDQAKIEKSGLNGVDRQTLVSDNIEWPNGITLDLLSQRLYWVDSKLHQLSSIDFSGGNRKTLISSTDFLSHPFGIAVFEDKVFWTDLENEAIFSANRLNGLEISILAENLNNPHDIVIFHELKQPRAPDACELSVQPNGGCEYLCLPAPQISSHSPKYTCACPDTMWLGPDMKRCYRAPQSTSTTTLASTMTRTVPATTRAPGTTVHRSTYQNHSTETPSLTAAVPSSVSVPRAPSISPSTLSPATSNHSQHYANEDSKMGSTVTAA

reelin, sequence (P78509 26-3460): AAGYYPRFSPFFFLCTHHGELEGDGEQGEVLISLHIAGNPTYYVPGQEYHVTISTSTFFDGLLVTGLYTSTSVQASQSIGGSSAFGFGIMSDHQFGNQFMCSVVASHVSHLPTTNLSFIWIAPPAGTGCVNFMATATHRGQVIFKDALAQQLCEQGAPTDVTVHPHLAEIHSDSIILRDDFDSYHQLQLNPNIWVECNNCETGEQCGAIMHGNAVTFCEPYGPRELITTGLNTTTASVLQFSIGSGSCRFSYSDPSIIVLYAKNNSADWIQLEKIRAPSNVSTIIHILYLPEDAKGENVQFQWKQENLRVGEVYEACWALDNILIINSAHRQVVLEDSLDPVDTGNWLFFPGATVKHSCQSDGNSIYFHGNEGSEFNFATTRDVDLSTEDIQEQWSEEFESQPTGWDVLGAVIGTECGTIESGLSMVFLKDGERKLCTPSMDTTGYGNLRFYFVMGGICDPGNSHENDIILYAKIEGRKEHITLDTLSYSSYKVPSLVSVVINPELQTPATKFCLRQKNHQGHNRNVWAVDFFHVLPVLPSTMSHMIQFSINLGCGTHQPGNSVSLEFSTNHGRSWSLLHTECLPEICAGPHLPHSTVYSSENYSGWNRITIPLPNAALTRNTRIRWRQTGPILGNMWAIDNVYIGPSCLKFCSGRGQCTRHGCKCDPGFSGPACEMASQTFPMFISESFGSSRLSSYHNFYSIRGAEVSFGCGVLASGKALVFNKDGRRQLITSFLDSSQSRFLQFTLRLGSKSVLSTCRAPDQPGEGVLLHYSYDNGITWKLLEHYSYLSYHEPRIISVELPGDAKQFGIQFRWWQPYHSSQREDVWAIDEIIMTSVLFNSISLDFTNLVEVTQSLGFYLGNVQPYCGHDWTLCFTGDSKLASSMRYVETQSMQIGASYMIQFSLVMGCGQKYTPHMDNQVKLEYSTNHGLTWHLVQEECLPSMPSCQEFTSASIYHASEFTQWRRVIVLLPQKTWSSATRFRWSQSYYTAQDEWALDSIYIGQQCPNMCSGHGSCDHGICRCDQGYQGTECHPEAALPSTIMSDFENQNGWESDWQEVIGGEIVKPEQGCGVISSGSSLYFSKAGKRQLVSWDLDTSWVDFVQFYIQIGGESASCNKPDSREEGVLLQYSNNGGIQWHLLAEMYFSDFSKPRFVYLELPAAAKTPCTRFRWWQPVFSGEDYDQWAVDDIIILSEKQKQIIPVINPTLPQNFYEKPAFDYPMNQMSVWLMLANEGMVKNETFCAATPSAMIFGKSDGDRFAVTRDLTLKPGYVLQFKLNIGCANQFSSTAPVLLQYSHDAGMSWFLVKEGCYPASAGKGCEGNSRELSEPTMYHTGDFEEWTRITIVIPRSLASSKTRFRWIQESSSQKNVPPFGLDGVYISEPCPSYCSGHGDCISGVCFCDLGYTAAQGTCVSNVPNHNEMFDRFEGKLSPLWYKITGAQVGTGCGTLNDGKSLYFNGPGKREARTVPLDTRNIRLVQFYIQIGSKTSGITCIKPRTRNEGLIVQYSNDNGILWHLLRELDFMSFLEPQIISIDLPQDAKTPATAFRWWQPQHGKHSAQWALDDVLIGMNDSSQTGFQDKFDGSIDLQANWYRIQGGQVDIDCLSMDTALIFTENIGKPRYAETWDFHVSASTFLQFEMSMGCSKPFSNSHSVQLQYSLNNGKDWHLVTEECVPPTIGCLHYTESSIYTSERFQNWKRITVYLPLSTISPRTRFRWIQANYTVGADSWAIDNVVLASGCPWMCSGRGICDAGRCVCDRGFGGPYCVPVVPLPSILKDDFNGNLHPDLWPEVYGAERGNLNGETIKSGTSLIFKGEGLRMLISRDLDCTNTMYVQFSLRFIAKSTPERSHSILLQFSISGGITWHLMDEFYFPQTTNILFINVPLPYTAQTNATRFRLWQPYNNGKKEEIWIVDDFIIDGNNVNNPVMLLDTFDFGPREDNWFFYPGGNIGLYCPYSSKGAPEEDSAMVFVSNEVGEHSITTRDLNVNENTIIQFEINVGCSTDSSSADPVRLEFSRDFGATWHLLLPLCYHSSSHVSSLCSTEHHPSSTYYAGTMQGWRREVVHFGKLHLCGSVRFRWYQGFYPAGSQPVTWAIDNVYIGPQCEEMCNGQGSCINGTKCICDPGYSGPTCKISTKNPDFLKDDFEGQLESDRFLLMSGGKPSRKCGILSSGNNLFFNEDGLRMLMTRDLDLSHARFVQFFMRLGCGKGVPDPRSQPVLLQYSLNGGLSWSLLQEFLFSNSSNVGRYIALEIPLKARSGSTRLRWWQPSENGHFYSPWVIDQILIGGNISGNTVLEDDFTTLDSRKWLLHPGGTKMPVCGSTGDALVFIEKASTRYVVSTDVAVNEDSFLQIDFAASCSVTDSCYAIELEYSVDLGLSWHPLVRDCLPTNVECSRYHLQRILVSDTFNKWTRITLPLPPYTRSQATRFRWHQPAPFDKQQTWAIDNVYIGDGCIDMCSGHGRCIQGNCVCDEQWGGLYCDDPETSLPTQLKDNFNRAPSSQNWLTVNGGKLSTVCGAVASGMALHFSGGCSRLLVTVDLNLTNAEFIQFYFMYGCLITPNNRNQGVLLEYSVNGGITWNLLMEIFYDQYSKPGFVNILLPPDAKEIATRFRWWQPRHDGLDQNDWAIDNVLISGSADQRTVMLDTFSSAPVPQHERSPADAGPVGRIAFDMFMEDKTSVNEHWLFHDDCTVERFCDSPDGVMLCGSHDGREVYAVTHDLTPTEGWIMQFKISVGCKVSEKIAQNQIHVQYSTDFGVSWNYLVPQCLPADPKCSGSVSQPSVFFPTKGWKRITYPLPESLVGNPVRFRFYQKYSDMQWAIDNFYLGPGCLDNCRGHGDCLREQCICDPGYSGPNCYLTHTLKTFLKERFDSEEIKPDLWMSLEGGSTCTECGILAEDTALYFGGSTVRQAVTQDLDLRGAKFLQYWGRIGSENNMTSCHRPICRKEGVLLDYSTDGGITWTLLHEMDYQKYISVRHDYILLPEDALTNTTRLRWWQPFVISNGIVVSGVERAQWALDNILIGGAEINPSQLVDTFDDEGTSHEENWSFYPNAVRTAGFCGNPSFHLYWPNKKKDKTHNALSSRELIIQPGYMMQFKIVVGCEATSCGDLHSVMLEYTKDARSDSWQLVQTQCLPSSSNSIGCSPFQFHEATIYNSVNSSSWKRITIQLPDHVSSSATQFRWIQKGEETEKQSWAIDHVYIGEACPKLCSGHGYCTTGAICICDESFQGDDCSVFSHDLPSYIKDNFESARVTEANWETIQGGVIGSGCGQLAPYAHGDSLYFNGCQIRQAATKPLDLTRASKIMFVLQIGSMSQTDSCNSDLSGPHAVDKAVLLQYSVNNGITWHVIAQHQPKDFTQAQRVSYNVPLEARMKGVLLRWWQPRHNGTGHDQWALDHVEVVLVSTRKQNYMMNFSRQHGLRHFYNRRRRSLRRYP

Kd: 0.5 nM
Substance: reelin (from UniProt P78509)
